Measured values published in publication PMC12219266, “The molecular basis for acetylhistidine synthesis by HisAT/NAT16” (Nature Communications, 2025).

T1: NAT16 (HisAT) (Homo sapiens, UniProt Q8N8M0)
T1 construct: full length (369 aa), C-terminal 6xHis tag kept, codon-optimised, pFastBac1, Sf9 insect cells
T1 sequence (Q8N8M0 1-369): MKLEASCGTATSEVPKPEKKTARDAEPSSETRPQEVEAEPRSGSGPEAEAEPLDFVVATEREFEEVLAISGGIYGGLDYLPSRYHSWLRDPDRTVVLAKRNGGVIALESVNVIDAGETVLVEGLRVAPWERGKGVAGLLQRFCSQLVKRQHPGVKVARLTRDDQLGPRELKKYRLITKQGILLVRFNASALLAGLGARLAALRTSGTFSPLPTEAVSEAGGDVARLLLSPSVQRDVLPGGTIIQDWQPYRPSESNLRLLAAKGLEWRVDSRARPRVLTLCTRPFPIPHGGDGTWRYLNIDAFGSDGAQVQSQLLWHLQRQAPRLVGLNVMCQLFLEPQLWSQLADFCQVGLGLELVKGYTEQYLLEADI


How the values were obtained:
NAT16 (HisAT) = target: T1, NAT16 (HisAT); assay: DTNB real-time assay, Michaelis-Menten fit; type: biochemical; details: 50 µM Ac-CoA; 50 mM Na-phosphate pH 7.5, 37 °C
[1] = substrate: CC(=O)SCCNC(=O)CCNC(=O)[C@H](O)C(C)(C)COP(=O)(O)OP(=O)(O)OC[C@H]1O[C@@H](n2cnc3c(N)ncnc32)[C@H](O)[C@@H]1OP(=O)(O)O; assay: DTNB real-time assay, initial rates, ternary complex model, secondary plots; type: biochemical, Homo sapiens; details: varied with L-histidine, 50 mM Na-phosphate pH 7.5, 100 mM NaCl, 1 mM EDTA, 37 °C
Excerpt: (§1) DTNB real-time assay, initial rates, ternary complex model, secondary plots on NAT16 (HisAT)

[2] = substrate: N[C@@H](Cc1c[nH]cn1)C(=O)O; assay: as above; type: biochemical, Homo sapiens; details: varied with Ac-CoA, 50 mM Na-phosphate pH 7.5, 100 mM NaCl, 1 mM EDTA, 37 °C
Excerpt: as §1

| Molecule | apparent KM (NAT16 (HisAT)) | Km [1] | kcat [1] | kcat/Km [1] | Km [2] | kcat [2] | kcat/Km [2] |
| --- | --- | --- | --- | --- | --- | --- | --- |
| N=C(N)NCCC[C@H](N)C(=O)O [arginine] | determined the apparent kcat and KM with arginine and lysine |  |  |  |  |  |  |
| NCCCC[C@H](N)C(=O)O [lysine] | determined the apparent kcat and KM with arginine and lysine |  |  |  |  |  |  |
| NAT16 (HisAT) (Homo sapiens) (protein, full length (369 aa), C-terminal 6xHis tag kept, codon-optimised, pFastBac1, Sf9 insect cells) MKLEASCGTATSEVPKPEKKTARDAEPSSETRPQEVEAEPRSGSGPEAEAEPLDFVVATEREFEEVLAISGGIYGGLDYLPSRYHSWLRDPDRTVVLAKRNGGVIALESVNVIDAGETVLVEGLRVAPWERGKGVAGLLQRFCSQLVKRQHPGVKVARLTRDDQLGPRELKKYRLITKQGILLVRFNASALLAGLGARLAALRTSGTFSPLPTEAVSEAGGDVARLLLSPSVQRDVLPGGTIIQDWQPYRPSESNLRLLAAKGLEWRVDSRARPRVLTLCTRPFPIPHGGDGTWRYLNIDAFGSDGAQVQSQLLWHLQRQAPRLVGLNVMCQLFLEPQLWSQLADFCQVGLGLELVKGYTEQYLLEADI |  | 19.8 ± 4.5 µM | 36.5 ± 4.6 s⁻¹ | 1.9e+06 M⁻¹ s⁻¹ | 215 ± 53 µM | 36.5 ± 4.6 s⁻¹ | 177000 M⁻¹ s⁻¹ |
